The target of data set [1] is T1, OsNF-YB7-His (Oryza sativa, UniProt A6BLV7 1-254).
T1 sequence: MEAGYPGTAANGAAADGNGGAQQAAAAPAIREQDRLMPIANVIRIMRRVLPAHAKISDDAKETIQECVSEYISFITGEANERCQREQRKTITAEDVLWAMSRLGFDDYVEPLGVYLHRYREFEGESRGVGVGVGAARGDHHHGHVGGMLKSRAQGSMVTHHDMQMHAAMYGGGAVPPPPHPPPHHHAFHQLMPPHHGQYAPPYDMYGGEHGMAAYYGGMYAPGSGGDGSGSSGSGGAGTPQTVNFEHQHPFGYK
As to the kind of experiment: EMSA; Beyotime EMSA/Gel-Shift kit (GS009), manufacturer's conditions; 2 or 4 uM protein in Figure 6G; buffer, salt, pH and temperature not stated. The conditions noted are these: protein: recombinant, tags: His (pET-28a), blunt.

For data set [2], the target named is T2, OsGLK1-MBP (Oryza sativa, UniProt Q5Z5I4 1-455).
T2 sequence: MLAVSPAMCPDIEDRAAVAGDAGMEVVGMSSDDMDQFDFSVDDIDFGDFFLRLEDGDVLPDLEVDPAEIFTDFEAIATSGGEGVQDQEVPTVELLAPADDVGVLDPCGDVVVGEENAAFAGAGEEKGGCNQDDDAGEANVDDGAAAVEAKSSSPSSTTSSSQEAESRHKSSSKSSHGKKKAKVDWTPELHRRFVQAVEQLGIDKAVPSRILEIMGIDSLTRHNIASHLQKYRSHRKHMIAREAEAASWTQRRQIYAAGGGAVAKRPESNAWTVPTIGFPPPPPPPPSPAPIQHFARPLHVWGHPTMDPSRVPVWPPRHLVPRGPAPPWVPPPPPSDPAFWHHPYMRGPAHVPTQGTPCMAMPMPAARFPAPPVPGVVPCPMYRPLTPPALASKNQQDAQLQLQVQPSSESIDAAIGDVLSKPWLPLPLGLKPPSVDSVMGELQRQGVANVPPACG
Described as above. As to conditions: protein: recombinant; tags: MBP (pMAL-c5X); label: biotin (3' hydroxyl end of both strands); blunt.

Setting [3] is: label: biotin (3' hydroxyl end of both strands).

B1: OsGLK1 promoter probe (dsDNA)
DNA 1: TTTTGCAGAAGCGACCAAGCTGCACTTGCGCTCGCGGACAAGGCAACCCA
DNA 2: TGGGTTGCCTTGTCCGCGAGCGCAAGTGCAGCTTGGTCGCTTCTGCAAAA
In the case of B1, the binding result in data set [1] (label: biotin) is “no binding”.

B2: OsPORA promoter probe (dsDNA)
DNA 1: TACGAAAAAATATCCCACCACGTGTCGCTTTCACAGGACAAT
DNA 2: ATTGTCCTGTGAAAGCGACACGTGGTGGGATATTTTTTCGTA
Consider B2, for which the binding result in data set [1] (setting [3]) and in data set [2] was “binds” in each case.

B3: OsLHCB4 promoter probe (dsDNA)
DNA 1: CCCAATCCCAGCCCTCCACGTGTCACCAACCCCATGGC
DNA 2: GCCATGGGGTTGGTGACACGTGGAGGGCTGGGATTGGG
As to B3, the binding result in data set [1] (setting [3]) and in data set [2] was “binds” throughout.

The values above are taken from publication PMC11407766, “OsNF-YB7 inactivates OsGLK1 to inhibit chlorophyll biosynthesis in rice embryo”.
